# Measurements from patent US20250388682A1 (EPIBIOLOGICS, published 2025).
# B1: EPI873 (hu15G11v5/Mav2) (bispecific antibody, human IgG1, kappa)
# heavy: not shown
# light: DIQMTQSPSSLSASVGDRVTITCRASDNLYSNLAWYQQKPGKSPKLLVYDATNLADGVPSRFSGSGSGTDYTLTISSLQPEDFATYYCQHFWGTPLTFGQGTKVEIKRTVAAPSVFIFPPSDEQLKSGTASVVCLLNNFYPREAKVQWKVDNALQSGNSQESVTEQDSKDSTYSLSSTLTLSKADYEKHKVYACEVTHQGLSSPVTKSFNRGEC
# chain: not shown
# B2: EPI1556-1 (hu15G11v5/EgB4) (bispecific antibody, human IgG1, kappa)
# heavy: not shown
# light: B1 light
# chain: not shown
# B3: EPI1022-1 (Duligotuzumab/Mav2) (bispecific antibody, human IgG1, kappa)
# heavy: not shown
# light: DIQMTQSPSSLSASVGDRVTITCRASQNIATDVAWYQQKPGKAPKLLIYSASFLYSGVPSRFSGSGSGTDFTLTISSLQPEDFATYYCQQSEPEPYTFGQGTKVEIKRTVAAPSVFIFPPSDEQLKSGTASVVCLLNNFYPREAKVQWKVDNALQSGNSQESVTEQDSKDSTYSLSSTLTLSKADYEKHKVYACEVTHQGLSSPVTKSFNRGEC
# chain: not shown
# B4: EPI1527-1 (Duligotuzumab/EgB4) (bispecific antibody, human IgG1, kappa)
# heavy: not shown
# light: B3 light
# chain: not shown
# Target: Epidermal Growth Factor Receptor (EGFR) (human, UniProt P00533 25-1210)
# Assay: cell-based or functional assay
row,Binder,EGFR cell surface removal (percent; flow cytometry with a labeled anti-EGFR antibody after 24 hours at 50 nM) [%]
1,B1,76.4
2,B2,69.2
3,B3,75.1
4,B4,78.6
